Series [1] deals with T1, fibroblast activation protein (FAP) (UniProt Q12884 1-760, limits assumed).
T1 construct: whole, on cells; also called FAP antigen; FAP on HT1080FAP cells
T1 sequence (looked up): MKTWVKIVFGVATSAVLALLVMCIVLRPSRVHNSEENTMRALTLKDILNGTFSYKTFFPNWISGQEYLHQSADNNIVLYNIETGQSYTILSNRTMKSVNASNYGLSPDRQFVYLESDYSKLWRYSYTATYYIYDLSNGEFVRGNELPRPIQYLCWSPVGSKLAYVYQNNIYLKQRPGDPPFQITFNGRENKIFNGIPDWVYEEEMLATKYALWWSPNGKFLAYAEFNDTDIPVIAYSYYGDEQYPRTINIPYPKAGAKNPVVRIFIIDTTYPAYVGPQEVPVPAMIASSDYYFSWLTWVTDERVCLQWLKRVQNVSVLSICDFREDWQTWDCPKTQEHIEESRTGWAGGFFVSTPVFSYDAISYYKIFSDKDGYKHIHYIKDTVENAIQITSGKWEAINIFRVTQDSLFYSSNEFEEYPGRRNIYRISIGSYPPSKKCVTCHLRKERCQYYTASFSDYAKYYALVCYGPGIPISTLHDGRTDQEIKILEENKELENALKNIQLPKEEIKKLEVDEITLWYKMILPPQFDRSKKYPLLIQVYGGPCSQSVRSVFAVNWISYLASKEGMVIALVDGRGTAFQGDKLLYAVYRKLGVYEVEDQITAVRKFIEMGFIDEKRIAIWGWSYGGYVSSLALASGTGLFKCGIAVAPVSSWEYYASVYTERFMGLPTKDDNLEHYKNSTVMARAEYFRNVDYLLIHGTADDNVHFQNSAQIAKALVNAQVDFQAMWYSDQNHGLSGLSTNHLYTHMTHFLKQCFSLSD
The experiment in a line: flow cytometry on HT1080FAP against HT1080 cells, 5 ug/ml fusion protein, anti-Flag M2 detection. In general terms: In flow cytometry, cells or beads pass a laser one at a time.

Series [2] concerns the molecule itself. In words: BS3 chemical crosslinking, gel filtration and native PAGE; multimers up to hexamers, native mass about 500 kDa. On the technique in general: In gel filtration, larger molecules generally elute earlier.

Here are results for one molecule from patent publication WO2007014744A2 (dated 2007).

B1: CD95-TNC-PL-SC40-CD95L prodrug (other)
chain: LEVARLSSKSVNAQVTDINSKGLELRKTVTTVETQNLEGLHHDGQFCHKPCPPGERKARDCTVNGDEPDCVPCQEGKEYTDKAHFSSKCRRCRLCDEGHGLEVEINCTRTQNTKCRCKPNFFCNSTVCEHCDPCTKCEHGIIKECTLTSNTKCKEEGSRSNPRDIACGCAAAPDIKDLLSRLEELEGLVSSLREQGTGGGSGRPPRDHPVGLLARGGGHPVGLLARGGGHPVGLLARTGLEQVQLVQSGGGMVEPGGSLRLSCAASGFTFSNAWMSWVRQAPGKGLEWVGRIKSKAGGGTAEYAAPVKGRFTISRDDSQNTLYLQMNSLKTDDTAVYYCTTHVYGAPRNWGQGSLVTVSSASTKGPKLEEGEFSEARVQSVLTQPPSVSAAPGQKVTISCSGSSSNIGNNYVSWYVQLPGTAPKLLIYDNNKRFSGVPDRFSGSKSGTSATLGITGLQTGDEADYYCGAWDGSLREAVFGGGTKVTVLGAAAVDDYKDDDDKEFTREKKELRKVAHLTGKSNSRSMPLEWEDTYGIVLLSGVKYKKGGLVINETGLYFVYSKVYFRGQSCNNLPLSHKVYMRNSKYPQDLVMMEGKMMSYCTTGQMWARSSYLGAVFNLTSADHLYVNVSELSLVNFEESQTFFGLYKL
notes: Made in HEK293 cells and purified on anti-Flag M2 agarose; Forms covalently associated trimers through the tenascin domain; Crosslinking, gel filtration and native PAGE (about 500 kDa) point to hexamers, i.e. dimers of trimers; also called SC40-CD95L-PD; CD95-TNC-PL-SC40-F-CD95L
As to B1, the binding result in series [1] and in series [2] was “binds” throughout.
